Measured values taken from patent US20240010735A1 (EISAI R AND D MANAGEMENT, published 2024).

Legend:
Experiment in all cases: ELISA: Fc-His proteins (1 nM) captured on anti-6-His antibody, antibody A 10 µg/mL with human IgG 100 µg/mL, HRP anti-mouse IgG, OD450 as % of mouse EphA4-Fc-His
[1] = molecular target: T1, mouse EphB4 extracellular region-Fc-His protein (mouse; human, UniProt P54761 16-539)
T1 construct: extracellular domain; not shown: Fc region of human IgG1; histidine tag
T1 sequence (looked up): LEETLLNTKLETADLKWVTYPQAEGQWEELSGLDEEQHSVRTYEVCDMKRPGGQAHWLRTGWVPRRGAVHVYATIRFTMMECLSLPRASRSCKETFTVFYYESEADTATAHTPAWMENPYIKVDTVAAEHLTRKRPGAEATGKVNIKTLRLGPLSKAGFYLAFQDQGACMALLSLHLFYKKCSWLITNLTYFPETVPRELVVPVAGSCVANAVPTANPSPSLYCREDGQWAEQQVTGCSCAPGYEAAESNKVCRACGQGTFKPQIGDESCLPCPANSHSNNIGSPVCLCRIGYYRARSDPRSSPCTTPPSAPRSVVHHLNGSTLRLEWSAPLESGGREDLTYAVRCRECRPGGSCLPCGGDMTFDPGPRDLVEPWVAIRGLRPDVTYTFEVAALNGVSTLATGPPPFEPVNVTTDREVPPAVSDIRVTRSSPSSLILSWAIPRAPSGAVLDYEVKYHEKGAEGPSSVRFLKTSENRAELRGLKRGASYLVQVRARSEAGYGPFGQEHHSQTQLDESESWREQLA
Method: (§1) Rabbit anti-6-His antibodies (Bethyl Laboratories) were coated onto the wells of a 96-well plate (Nunc). After incubating at 4° C. overnight, the wells were blocked at room temperature for 1 hour by 1% Block Ace (DS Pharma Biomedical). After washing 3 times with 0.05% Tween 20/PBS (Thermo […]), each Eph receptor of mouse extracellular region-Fc-His protein (final concentration 1 nM) was seeded into each well, and incubated at room temperature for 1 hour. After washing 3 times, human IgG solution (100 μg/mL, Sigma) and antibody A (10 μg/mL) were supplemented to the wells, and incubated at room temperature for 1 hour. Horseradish peroxidase-labeled donkey anti-mouse IgG antibody (Jackson ImmunoResearch Laboratories) was added, and incubated at room temperature for 1 hour. After washing 3 times, TMBZ (3,3′,5,5′-tetramethylbenzidine, Sigma) solution was added to the wells, and upon confirmation of modest coloring, an equal amount of quenching solution (1 N H₂SO₄, Wako Pure Chemicals) was added to the wells, and absorbance at 450 nm was read by a microplate reader (PerkinElmer).

[2] = molecular target: T2, mouse EphA2 extracellular region-Fc-His protein (mouse, UniProt Q03145 26-538)
T2 construct: extracellular domain; Cloned into a pcDNA 3.1 vector separately from the other mouse Eph receptors; not shown: Fc; histidine tag
Method: as §1

[3] = molecular target: T3, mouse EphA8 extracellular region-Fc-His protein (mouse; human, UniProt O09127 27-541)
T3 construct: extracellular domain; not shown: Fc region of human IgG1; histidine tag
T3 sequence (looked up): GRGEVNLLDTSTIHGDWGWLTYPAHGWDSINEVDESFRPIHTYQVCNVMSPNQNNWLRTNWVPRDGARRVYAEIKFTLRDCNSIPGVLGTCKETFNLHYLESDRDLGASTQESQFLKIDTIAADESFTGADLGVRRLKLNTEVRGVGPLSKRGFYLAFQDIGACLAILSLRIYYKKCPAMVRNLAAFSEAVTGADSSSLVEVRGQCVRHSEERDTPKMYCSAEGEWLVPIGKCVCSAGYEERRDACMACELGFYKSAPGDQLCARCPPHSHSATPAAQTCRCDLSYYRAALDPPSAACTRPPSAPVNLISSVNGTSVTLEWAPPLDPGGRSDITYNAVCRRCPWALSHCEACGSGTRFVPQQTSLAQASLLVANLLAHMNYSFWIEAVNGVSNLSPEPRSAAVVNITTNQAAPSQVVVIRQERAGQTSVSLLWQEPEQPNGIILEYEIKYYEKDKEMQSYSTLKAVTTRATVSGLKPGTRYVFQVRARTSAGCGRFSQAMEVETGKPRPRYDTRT
Method: as §1

[4] = molecular target: T4, mouse EphB1 extracellular region-Fc-His protein (mouse; human, UniProt Q8CBF3 18-540)
T4 construct: extracellular domain; not shown: Fc region of human IgG1; histidine tag
T4 sequence (looked up): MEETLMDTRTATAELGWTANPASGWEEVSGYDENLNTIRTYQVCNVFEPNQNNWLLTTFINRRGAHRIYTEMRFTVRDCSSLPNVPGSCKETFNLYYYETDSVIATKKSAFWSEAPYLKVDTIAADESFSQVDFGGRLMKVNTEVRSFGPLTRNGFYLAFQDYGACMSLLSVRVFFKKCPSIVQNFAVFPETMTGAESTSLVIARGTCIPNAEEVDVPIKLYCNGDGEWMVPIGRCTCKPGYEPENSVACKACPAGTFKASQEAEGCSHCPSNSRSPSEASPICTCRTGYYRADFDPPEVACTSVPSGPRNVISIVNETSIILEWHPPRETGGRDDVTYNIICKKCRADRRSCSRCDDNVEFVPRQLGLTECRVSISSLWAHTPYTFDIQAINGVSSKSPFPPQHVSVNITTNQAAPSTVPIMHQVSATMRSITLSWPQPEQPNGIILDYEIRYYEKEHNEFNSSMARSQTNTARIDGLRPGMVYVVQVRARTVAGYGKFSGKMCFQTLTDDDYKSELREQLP
Method: as §1

Measured: binding result

T2 sequence (Q03145 26-538): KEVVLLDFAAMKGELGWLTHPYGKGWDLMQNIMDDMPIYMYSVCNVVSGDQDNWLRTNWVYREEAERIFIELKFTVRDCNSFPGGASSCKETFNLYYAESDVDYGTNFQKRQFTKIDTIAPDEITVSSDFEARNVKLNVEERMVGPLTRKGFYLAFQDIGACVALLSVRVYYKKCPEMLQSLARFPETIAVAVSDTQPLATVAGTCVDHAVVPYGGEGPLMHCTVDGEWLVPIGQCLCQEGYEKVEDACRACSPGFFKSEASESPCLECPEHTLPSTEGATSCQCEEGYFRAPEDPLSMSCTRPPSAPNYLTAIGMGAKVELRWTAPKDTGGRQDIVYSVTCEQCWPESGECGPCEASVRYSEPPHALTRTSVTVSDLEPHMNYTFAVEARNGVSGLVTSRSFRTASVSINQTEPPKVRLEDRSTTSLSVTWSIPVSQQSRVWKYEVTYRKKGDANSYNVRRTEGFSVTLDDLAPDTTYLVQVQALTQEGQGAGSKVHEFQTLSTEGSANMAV

B1: mouse anti-EphA4 monoclonal antibody (antibody A) (antibody, mouse IgG1, kappa, V domains shown)
VH: QVQLKQSGPSLVQPSQSLSITCTVSGFSLTRYGVHWVRQSPGKGLEWLGVIWRGGSTDYNAAFMSRLSITKDNSKSQVFFKMNSLQADDTAIYYCAKESLFGVYYDYGYYSMDYWGQGTSVTVSS
VL: DIQMTQSPSSLSASLGERVSLTCRASQEISGYLSWLQQKPDGTIKRLIYAASTLDSGVPKRFSGSRSGSDYSLTISSLESEDFADYYCLQYASYPLTFGAGTKLELKR
notes: purified from hybridoma supernatant
no binding (tested: 10 µg/mL): all assays above
